# In patent US20210002358A1:
# B1: PT82 mAb (recombinantly expressed, mouse IgG2a/kappa) (antibody, V domains shown)
# VH: EVKLEESGGGLVQPGGSMKLSCVASGFTFSNYWMNWIRQSPEKGLEWVAQIRLQSDNYATRYAESVKGRFTISRDESKTSVYLQMNNLRTEDTGIYYCTGGTTYWGQGTLVTVSA
# VL: DIVMTQSQKFMSTSVGDRVSITCKASQNVGTAVAWYQQKPGQSPKLLIYSASIRYTGVPDRFTGSGSGTDFTLTINYMQSEDLADYFCQQFSSYPYTFGGGTKLEIK
# Target: tau seeds in spinal cord homogenates of P301S transgenic mice (aggregated transgenic human tau) (human), P10636
# Experiment: cell-based or functional assay
# Chain of tau seeds in spinal cord homogenates of P301S transgenic mice (aggregated transgenic human tau) (human), P10636 (P10636 other isoform, or with tags, fused parts or gaps P301S P301S): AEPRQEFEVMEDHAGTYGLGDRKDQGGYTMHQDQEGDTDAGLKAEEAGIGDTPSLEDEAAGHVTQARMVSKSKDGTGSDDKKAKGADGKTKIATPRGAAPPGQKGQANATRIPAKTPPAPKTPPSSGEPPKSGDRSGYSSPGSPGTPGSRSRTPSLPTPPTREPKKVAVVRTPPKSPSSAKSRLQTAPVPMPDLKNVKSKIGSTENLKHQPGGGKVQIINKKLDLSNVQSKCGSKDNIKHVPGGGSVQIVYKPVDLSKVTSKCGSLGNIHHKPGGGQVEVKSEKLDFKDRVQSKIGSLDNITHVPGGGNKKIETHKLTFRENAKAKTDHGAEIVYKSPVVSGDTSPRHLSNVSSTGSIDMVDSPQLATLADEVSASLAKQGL
binder,measurement,value
B1,"K18 aggregate formation, FRET-positive HEK cells counted by FACS",3 nM
